In data set [1] the target is E. coli bo3 oxidase (E. coli). The data set is described as follows: mass photometry.
Data set [2] deals with E. coli bo3 oxidase (E. coli). Description: SEC-MALS.
Data set [3] concerns the molecule itself. The data set is described as follows: mass photometry.
Data set [4] deals with T1, Streptomyces lividans potassium channel KcsA (Streptomyces lividans), P0A334.
T1 chain: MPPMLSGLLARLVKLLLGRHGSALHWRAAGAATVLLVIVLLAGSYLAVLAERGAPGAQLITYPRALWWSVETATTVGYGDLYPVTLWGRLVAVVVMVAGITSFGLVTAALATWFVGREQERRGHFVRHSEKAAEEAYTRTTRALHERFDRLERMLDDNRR
Description: mass photometry. The following applies: remark: other sources report otherwise.

The target of data set [5] is T1, Streptomyces lividans potassium channel …. The data set is described as follows: mass photometry. The following applies: remark: other sources report otherwise.

As to E. coli bo3 oxidase (complex), in data set [1], the relative abundance of dimers came out at 20% and the stoichiometry N (in general, a count of units in the complex or per binding partner) turned out to be 2. Also, in data set [2], the relative abundance of dimers worked out at 28%, the relative abundance of monomers turned out to be 72% and the stoichiometry N came out at 2.

B1: E. coli outer membrane protein F (natural protein)
chain: AEIYNKDGNKVDLYGKAVGLHYFSKGNGENSYGGNGDMTYARLGFKGETQINSDLTGYGQWEYNFQGNNSEGADAQTGNKTRLAFAGLKYADVGSFDYGRNYGVVYDALGYTDMLPEFGGDTAYSDDFFVGRVGGVATYRNSNFFGLVDGLNFAVQYLGKNERDTARRSNGDGVGGSISYEYEGFGIVGAYGAADRTNLQEAQPLGNGKKAEQWATGLKYDANNIYLAANYGETRNATPITNKFTNTSGFANKTQDVLLVAQYQFDFGLRPSIAYTKSKAKDVEGIGDVDLVNYFEVGATYYFNKNMSTYVDYIINQIDSDNKLGVGSDDTVAVGIVYQF
Regarding B1, in data set [3], the “stoichiometry N” value was 3.

B2: Streptomyces lividans potassium channel KcsA, P0A334 1-160 (natural protein)
chain: MPPMLSGLLARLVKLLLGRHGSALHWRAAGAATVLLVIVLLAGSYLAVLAERGAPGAQLITYPRALWWSVETATTVGYGDLYPVTLWGRLVAVVVMVAGITSFGLVTAALATWFVGREQERRGHFVRHSEKAAEEAYTRTTRALHERFDRLERMLDDNRR
In the case of B2, the stoichiometry N in data set [4] and in data set [5] was 4 in each case.

For the origin of these results see publication PMC7815066 (Chem, 2021).
